{"source": "paper PMC9223271", "about": "(Nature Communications, 2022)", "binders": {"B1": {"name": "S2E12 (antibody, V domains shown)", "VH": "not shown", "VL": "DIVLTQTPGTLSLSPGERATLSCRASQSVSSSYLAWYQQKPGQAPRLLIYGASSRATGIPDRFSGSGSGTDFTLTISRLEPEDFAVYYCQQYVGLTGWTFGQGTKVEIK", "notes": "source: generated by the authors"}, "B2": {"name": "ZCB11 (human IgG1 monoclonal antibody) (antibody, V domains shown)", "VH": "EVQLVQSGPEVKKPGTSVKVACKASGFTFITPVSMQWVRQARGQRLEWLGWIVLASGNTDYAQKFQERVTIIRDMSTSTAYMELSRLRTEDTAVYYCAAPSCSRTICSDGFDIWGQGTMVTVSS", "VL": "EIVLTQSPGTLSLSPGERATLSCRASQSVSSSYLAWFQQKPGQAPRLLIFAASSRAIGIPARFSGSGSGTDFTLTISRLEPEDFAVYYCQQYSSSPWTFGQGTKVEIK", "notes": "also called bNAb ZCB11"}}, "molecular_target": "T1, SARS-CoV-2 RBD protein (recombinant, WT) (SARS-CoV-2 wild type (Wuhan-Hu-1 …, UniProt P0DTC2))", "T1 construct": "also called WT RBD", "assay": "SPR", "conditions": "both partners purified", "data": [{"binder": "B1", "values": [{"measurement": "binding result", "result": "binds"}]}, {"binder": "B2", "values": [{"measurement": "Kd", "result": 0.0575, "unit": "nM"}]}]}
